A protein production outcome set (Wang et al. 2014)

Assay: label from the status in PepcDB records
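Further: failed if final PepcDB status was selected cloned or expressed and not failed if soluble or beyond.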

Sequence: MDTEIHNPHIPGGRPPSRPAIAALTFVIFMSLTLASWSVVQDLQERHENTRFDKRVAEVIHKIEHHFSGYEQVLKGALGHLLASPSVSRNEWRTYVNALRINDRYPGIHGIGFAKYIPRSGLAAHTEEVRAEGFPSYKVWPGTPRQEYTSIIYLEPFTGSNLRAFGYDMFSNAVRRAAMSRARDTGEVALTRKVKLVQETGEDIQAGVLMYLPYYGAANLPKTVEERRASLGGYVYAPFRMVDFVRATLGSELDILDLRIFDGKAMAEDSLLFDSVKHRSGPSPVPKFKRVIPISLYGQTWALEASSRPAFEKAIKNYEALLVLLGGFVVSMLTAMVSFVLSGNKEKAAALGHVNKKLLLAMEEQQATTRELSNAKLRTERILESITDAFYTLDREWRFTYVNKEAENLLQRNREDLLGRVCWEEFKETAGTTFDREYHRALMENRTVTFEEFYVPLDEWFEVHAYPSEEGLTVYFRDITERKESEQARQEAHVRIRQQASLLDKATDAIIVFGMDNCIEFWNQGAERLYGWTSEEVMGREVEMLYDNVAVFDEANRALLSSGEWRGELAQRRRDQSMLNVEAHWTLVRNDDGEPQAIFAINTDITQRKSAENEILHLALYDSLTGLPNRRLLLDRLGHALAVSARNQRMGALLFIDLDNFKLLNDTLGHDMGDLLLRQVAPRLSSCVRESDTVARLGGDEFVVILMGDFGEDHDEALTQISTICERIRSAFIQPFNLDPYIHHITPSIGIALFNDQSQTTNELLKRADLAMYQAKASGRNAMRFFDPDMQAAMNARAILESELYKSWERNEFILHYQLQVDSRGIIGAEALVRWQHPRRGLLPPSEFIPQAEETGLILPLGEWVLETACNQLASWALQPETVQLNLSVNVSSLQFCQPDFVEQVISILDRTGANPQRLKLELTESILVHDMDDTIAKMMTLKARGVGFALDDFGIGYSSLYYLKRLPLDWVKIDRSFVRDVLTDNNDATIVRTILLLAKSMGLAVIAEGVETGAQKDFLASHGCTAYQGYLFSRPLPLEQFERFVQPAAGGAV
- protein production: failed

Sequence: MDTKKIKTSCLINNYNYAAFLSEAVASTLRQTVKFDEIIIVDDASTDNSAEVIAKFAQQADIKYILKEKNQGQLSSFNEAFLNASGDIIFFLDADDAYEPEYLETVLNFYNRRSECDFVFCAYKKFGAVEGTFQDYEIDVDLGYSVIRTLCNGEWIGSITSTLSMRRDILRKVLPIPNTEDWRVRADDCLVWGASLVGAKKFYLSQPLVRYRIHQNNQFHNSKFVNTDKDYEYKRFWKRNSLFNYILQKNNLELPFLLAFTSLNELKTIPCPNNQDFISYLKIIFLFEKNVYWKIKGIFLLFNYLGKFLLNGKLQIR
- protein production: failed

Sequence: MDTLPHHLLDEILFRIDHRSLAMIQCTNRSLQSHISKTPNFASEYFSRIRSSLLYIATHGCPLICYHLYGDSRSPRTVETLTQCHILGYCSGLLLLFLNKNLCVANPLTKKFRFLNHSRSKFFPTDFTLRGGRQQVIGFAVDQTDRTTPSFKIVNIKEGAVHWLRNDGSIVAFNLKTEKARLIPIRFPKELCLKTLFTAVDNNLTLISATEEVIYVYAFHNILSDPKWVLVKQIRNGVLDEKRLYSWYVEAYDGKSLVLRETILKKDYYNKHLKQVLHGYDLRANKWEVIGSIPEWSPSGLDFYQFTPSPSSVIGLDDKEGEEILACDDKRIPSVNAIMRLIYGIS
- protein production: failed

Sequence: MDTNYKMLYEKYEKLKNEFSTYQNFAETQIQRMNGKNTELEKKLDILTNVIEVSKYINSNISDDNLVPMINDMIIGILGVTYSTIYLVEDDEKLIVKASNVMDNYDIIVNPVFSTFSDNRPIVINSKEPLFKEFKNKLKVHSIIGVPITLRDNFRGYIIVEHTLYDFFSHGHIKFISSIANQIAIAIENSFLYKKVKESSIKDPFLGIYNRKHFFDMIEGKVAKDSRRSFAIVMLDIDHFKSFNDSYGHQFGDEVLIQTAKILEQSIGEKDEVARYGGEEIVLYLNDAQSKEKVFKTVDGIRASLSNNSVRHGGIEKRVTASFGISYYPQNGETVEKVVSVADAMLYEAKNSGRNKVVSSL
- protein production: failed

Sequence: MDTQNLPDQIIPIFMSFDKNYALGASVSLYSLLSHASRHTSMIDFSPLNQSNKLLGANIVYKIHCLVKGVTLEQQNKLLKTIAPFKKFASLEFIHINSLDHSIESYLNKSCSKRYGGLLVLCRLLLASLFPNYSKIISIDADTVFLGDVASAYFALDNDPTKSLGMVRDTFSHLSFEAFCDFCKRACKNFKIDFSRFSPDELKRIHQGFNMGFLVAHLDRWRQDGFEKTALEFLKTRGKDLFYPEQCLVNMVFWERILELPIYYNCYSDFFKEHYPKNIIMLHFIKYKPWRSVSSLNGRLICYEAEASFWLANLFHTPFKNDFFKERLEMAKDQQMQSFKTHIRSQTIRNYLGFRVKNILKKVFKLSLEHHHHHH
- protein production: not failed

Sequence: MDTQTLNSDLRVFMHHIYEFEKGVRSMVLATLANDDIPYAEERLRSRQIPYFAQPTPNTERTNLFFGCKECMEAIRLFVSGRSLNSLTPEEDFIIGAMLGYDICRQCERYCRRKSNS
- protein production: not failed

Sequence: MDTVILITVIIVIVGLAFDFINGFHDIANAVATSISTRALKPRVAIGIAAVMNFLGAISFTGVAESLTKSIVDPFSLNNGEFVVLCGLIAAVIWNLMTWLVGMPSSSSHALIGAIAGASIASASSFSVLNWSGFTTIIIALIISPIIGFTVGYLIYSLFKHLFHDKKLGKMNRRFRFIQIGTAAAQAYSHGTNDAQKTMGIITLALVASGLLKESAGIPFWVQVSCAASMAIGSSVGGYRIIKTVGTKIMKITPVTGVASDLSSLSVIMTATLIHLPVSTTQVIDSSIMGVGTANHKKEVNWRTGKNMVVTWFITLPLAGLLAAVVYWISAAIFL
- protein production: failed

Sequence: MDVFDGLPDPIIVDILNKVGDVKTLLRCSSLSKRFNSLVPQSESLTLRLDHSVSDSPVVTSIFRSLFNGLVSLLSKPAKPITITTLSPSLPFKILSRFDRIRNLDVELPGGDVKLEKGAAVKWKAEFGKTLKSCVIVAFRSAGTVSSPVAVEGESDAEFVTGLKTRVVWTISALMAASSRHYLMREVVKEHEEIESLVMRDKEREGTVVMNEEGLKELRNTEARVEDEERVVKNKRSVVPSVRMSMRHAPSLKLKSGICLESATLVIVRPSGADFEVGDDAELATEAFVGDCMYGEAVVALLKCKKNALEMNSF
- protein production: failed

Sequence: MDVGSFGFTIAGLVVGFIVGMTGVGGGSLMTPILLWFGIHPATAVGTDLLYAAITKASGVWVHARNKNIDWKITGLLSLGSVPAAALTLWFLSTLHTDTSALNAIIKQGLAVVLILTALAILFKSRLQAFASRHAGDHYHLSDRSLNILTVLTGVVLGIMVTLTSIGAGALGTVALFLLYPFLVTRRLVGTEIAHAVPLTLVAGLGHAGMGNMDWSLLGYLLLGSLPGIYLGSHLTGRISDRVLRPCLATMLLLIGYKLAF
- protein production: failed

Sequence: MDVHQLTEQALALLLQHTGADGGAILIEVDGEIRVAASQGIGSAHTLANNDRVRSALRTERRHRVQLPEDLVVDGMLAQFRPKEVIIDPVRHKEVVLGAVVLASGQGFSAEDRNRLDVFERGLALALHNALLYDRLQTLAALDPLTGALEHHHHHH
- protein production: not failed

Sequence: MDVLPLLLLVAGSAAVAGAARRTPVPAPLLLVAAGLIASYIPGVPEYTLDPEVVLPLVLPPLLYTAASDSSYLDLRAQLRPVALLSIGYVLFATLVVGWAAYLLVPGLPLPAALVLGAVVAPPDAVAATAVARRVGLPSRITTILQGESLVNDATAITAYKVALAAAVGEGATWAHGVGEFLLAAVGGVAVGLLLMVPLHWLRTHLKEALLQNTLSLLIPFVAYGLAEWAHASGVLAVVVVALYLGHRNYEVDFATRLQEEAVWKMVAFVLESAVFALIGLQLQVVLKGLGEYRGVDAAWYAVAVFLVVVLARFVWVYPATFLPRLLSARIREREENPTWKAPFIIGWAGMRGVVSLAIAFSIPLTVHGQGKGPFPGRNLILFLTFTTVIGTLVVQGLTLPPLIRLLRLPGRDAQAETLAEANAQAQASRVAELRLNDLLDDERNALPPPLADRLRDVLERRRNAVWERLGAVNPVTGESVDDTYRRLSREMIAAERSVFVRLRNGRYIDDEMLRTLLRRLDLEEAAAFREAT
- protein production: failed

Sequence: MDVPSSWDALRKQARKIEAQLDEQMHSYRRLVSTKALSKSDGNESDLEAGIDLLLRQLQQVNAQMQAWVSSGGSEMVSHTLTRHQEILQDLTQEFYRHRSSLRAKQEHASLLEDFREFDRTRLDLEDGYGSEQALIKEHMGINRNTAQMDGVISQAQATLGTLVFQRSTFGGINSKLSNVASRLPTVNTILAAIKRKKSMDTIILSLVAAVCTFLIFIYWITK
- protein production: failed

Sequence: MDVQFAILAFTSLFSILNPFGVIPTYLVLTSQYSKVEKIKIIRKSMLAAFIILMMFALLGNQIIGFFGISIPAIKITGGVLLFLIALDMIQGNTSKVEKSPKLESHLKSHAEEIEEMDEIAIVPLTVPLLTGPGSISAVIAMMAQTSDFDGKISVIIAISLCIIISYFVLKFSKDLEKMLGKIGFKVLTKMMGLVLTAISIQMALDGILMVFG
- protein production: failed

Sequence: MDWAQLLPSMKTRTGVATSPPPARSFYCHPSARKNPLHLHLITDAVARNILETLFRTWMVPAVVVSFYDAEELKPLVSWIPNNHYSGLYGLMKLVLPSILPPSLARVIVLDTDVTFSSDIVELWALFDHFSDKQVVGLVENQSDWYLGNLWKNHRPWPALGRGFNTGVILLWLDRLQQTGWEQMWKVTAKRELLTLMATSLADQDIFNAVIKEHPHLVHPLPCVWNVQLSDHTRAERCYLEAADLKVIHWNSPKKLRVKNKHAEFFRNLHLTFLGYDGKLLRRELFGCPNQFPPGAEQLQQALTQLDEEEPCFEFRQQQLTVHRVHITFLPHQPPPPQPHDVTLVAQLSMDRLQMLEALCRHWPGPMSLALYLTDEEAQQFLHFVETSPVLSMRKDVAYHVVYRDGPLYPVNQLRNVALAQALTPYVFLSDIDFLPAYSLYDYLRASIEQLELDSRRKTALVVPAFETLHYRFSFPNSKAELLTLLDAGSLHTFRYHEWPQGHSSTDYSRWREAQAPYSVQWSADYEPYVVVPRDCPRYDPRFVGFGWNKVAHIIELDAQEYEFLVLPEAFSIHLPHAPSLDISRFRSSPTYRNCLQALKEEFHQDLSRRYGSAALKYLTALQQARSRA
- protein production: failed

Sequence: MDWIESVKSYIKVVEEGSFNAAAYQLNTSGSAISKRINWLEERVGVQLLTRTTRSVHQTEAGLLFYQRARLQLDQWQHLVDETRAINQTPAGLLKIGATLAVGSKFIIKYLDEFLATYPKIKVQLITTLPGQVPEHNVDVFISRELEQLNTFSYKATHLFEHHSGFFASKDYLDKYGTPNNINELKAHNMLIWGERPIKEIKLTNNKRVTLRGNFATTNPEALFHAAKRGMGILLTSQQMVIDDLQSGALVPILPEITTDHTRVNAYYPTLDYEHTRTQLFIKYLKTKLS
- protein production: failed

Sequence: MDWITLLRSLQSDFIKRLSSGCLLHCEIEGQYSELTVISGERLKTLRDFCWLMAEKYKRVSPVRDVFISYLKGKLGEEVVKERLADLITEVDYEKRLGGDGKIDFTLTANPAIGIEVKSRHGNIDRVRWSVSAEEVEKNAVVVCIFIKEDVNEAQSSYHLLLAGFLPTQMIKLKTGNISFGIEQLLYGGGLWGYLEQLQASANYHQFQQSPPIYQYKPQPELLSKINQTQSIKPALFTGIKNILPYRQQEAINIDYIKIGDECFAQGEYTASIKNYSQALQASSDNCELYYKRGLSYYQLGDYEAAIADYSQAININLHDAKSYHKRGLALSQLAAYEAAIDDYNQAIRINPHAASIYKNRAEARSHLGDNQGAIEDYTQAIKINPQYADTYKNRGISRYLLATQPGFTQAIKINPNDANAYKNRGNARADIGDYLGAIEDYNQAIQINPKAADAYYNRGNARYDLGDEEGAIADYTQAIQINPSYADAYYNRGNVRAGIKDKQGAIADFQKAADIYRKEGKLAELKDTTERVVELEIEESIDILNF
- protein production: failed

Sequence: MDWKVFLLRVAVALVLGALIGAERQLRQRLTGLRTNALVSTGACLFVLMTQGVPGLAGDASRIAAYVVSGIGFLGGGVIMRDGLNVRGLNTAATLWCTAAIGVLCSMGLLLEATLGSLVVLCANILLRDIAQRLNRQDVLPASEAEQRYEVQIVCRAEDEIQVRSLMLHSLGSSDLRLQSLHSEDLDNPAKLEVRAELLGTPEAPAQLERLVSRVSLEKGVSSVRWQVFELAAD
- protein production: failed

Sequence: MDWTTLFFSFRGRINRAKYWLVGLIYVAAWMVFTVLAITWLGGVDPDQLFRFAGGAILIWLIAIALGLAGTWSGLATGVKRLHDRDKSGWWILLFWFGPSLLGGSNQTMEDSPVSLVLALIGLGIAIWGFVELGCLRGTPGPNQYGPDPLEPQGTLT
- protein production: failed
